The results in this text go back to patent US6949506B2, “Relaxin-like factor and methods and uses thereof” (BAS Medical, Inc., priority 1995, dated 2005).

Positions of bridges follow the written chain, without caps; N, C: chain ends. Chains are numbered I, II in the order given. No end group written: not given here.

Experiment [1] addresses T1, RLF receptor (uterus) (Mus musculus, UniProt Q91ZZ5).
T1 construct: brain, and uterus (of estrogen primed mice); from tissue; host or cells: uterus of estrogen-primed mice, crude membranes
The experiment in a line: Binding assay, mouse uterus crude membranes, hRLF tracer. The method, then: (§1) Relaxin-binding assays were performed as described in Yang, et al., 1992, Endocrinology 130:179-185 and Büllesbach, et al., 1994, Endocrine. 2:1115-1120, using crude membrane preparations of mouse tissue. Mouse brains of 2 mice were collected into 15 ml of chilled buffer (25 mM HEPES, 0.14 M NaCl, 5.7 mM KCI, 0.2 mM phenylmethylsulfonyl-fluoride, and 80 mg/ml soybean trypsin inhibitor, pH 7.5) supplemented with sucrose (0.25 M, final concentration). The tissue was homogenized on ice for 10 s with a Polytron homogenizer (Brinlmann, Westbury, N.Y.) at setting 5. The homogenate was centrifuged at 700 rpm for 10 min at 4° C. and the supernatants were recentrifuged at 10,000×g for 1 h. The pellet was resuspended in 15 ml of ice cold binding buffer, 25 mM HEPES, 0.14 M NaCl, 5.7 mM KCI, 0.2 mM phenylmethylsulfonylfluoride, and 80 mg/ml soybean trypsin inhibitor, pH 7.5, supplemented with 1% bovine serum albumin, and centrifuged for 1 h at 10,000×g. […] The supernatant was discarded, the tip of the vial cut and counted in a γ-counter. Nonspecific binding was determined in the presence of 2 μl/ml of unlabeled competitor (0.33 μM). […]
Tissue specificity was determined using crude membrane preparations of leg muscles, kidneys, liver. brain, and uterus (of estrogen primed mice). […] Binding was based on protein concentration determined by Lowry. […]

In experiment [2] the test system is fibronectin expression, rheumatoid synovial fibroblasts. Description: Inhibition of fibronectin expression by synovial fibroblasts. The experiment is classed as cell-based, human. As to conditions: 100 ng/ml; TGF-β-treated fibroblasts. An excerpt:
The method for detecting and measuring collagen formation in the presence of relaxin described in Unemori and Amento, 1990, J. Biol. Chem. 265:10681-685 has been modified as follows to determine the ability of RLF, in vitro, to modulate the expression of fibronectin.
Materials And Methods. Specifically, using the method described in section 6.7.1., the fibronectin band was identified by size (220 kDa), bacterial collagenase-resistance, and positive staining using commercially available polyclonal anti-fibronectin antibody (Promega). The fibronectin band was scanned densitometrically to estimate levels of expression.

For experiment [3], the target named is T2, uterine relaxin receptor (Mus musculus, UniProt Q6R6I7).
T2 construct: brain, and uterus (of estrogen primed mice); from tissue; host or cells: uterus of estrogen-primed mice, crude membranes
T2 sequence (Q6R6I7 1-758): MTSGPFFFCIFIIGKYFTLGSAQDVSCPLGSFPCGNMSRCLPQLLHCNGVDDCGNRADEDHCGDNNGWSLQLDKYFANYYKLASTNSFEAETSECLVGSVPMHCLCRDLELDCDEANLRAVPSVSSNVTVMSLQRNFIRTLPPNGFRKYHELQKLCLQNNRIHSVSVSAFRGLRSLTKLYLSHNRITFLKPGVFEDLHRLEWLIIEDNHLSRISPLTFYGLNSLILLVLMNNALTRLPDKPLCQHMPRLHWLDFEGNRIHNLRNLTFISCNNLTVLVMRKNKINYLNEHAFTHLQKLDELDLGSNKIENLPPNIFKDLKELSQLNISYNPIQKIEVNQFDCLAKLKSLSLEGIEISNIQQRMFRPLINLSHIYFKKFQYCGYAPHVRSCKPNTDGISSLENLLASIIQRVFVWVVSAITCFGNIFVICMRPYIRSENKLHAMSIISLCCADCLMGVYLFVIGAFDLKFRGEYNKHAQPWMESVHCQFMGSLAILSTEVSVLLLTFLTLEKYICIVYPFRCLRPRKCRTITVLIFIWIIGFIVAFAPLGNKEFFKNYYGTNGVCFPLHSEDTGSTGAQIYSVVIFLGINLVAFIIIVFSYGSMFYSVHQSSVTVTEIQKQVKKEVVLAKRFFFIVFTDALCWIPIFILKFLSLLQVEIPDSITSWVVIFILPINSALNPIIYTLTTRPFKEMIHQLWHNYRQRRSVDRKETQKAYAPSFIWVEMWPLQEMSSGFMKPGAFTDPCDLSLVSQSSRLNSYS
Description: Relaxin-binding assay, mouse uterus crude membranes, porcine relaxin tracer. The method, then:
as §1
Tissue specificity was determined using crude membrane preparations of leg muscles, kidneys, liver. brain, and uterus (of estrogen primed mice). […] Binding was based on protein concentration determined by Lowry.

The subject of experiment [4] is collagen expression, rheumatoid synovial fibroblasts (Strain No. RSF64). The experiment in a line: Inhibition of collagen expression by synovial fibroblasts. The experiment is classed as cell-based, human. As to conditions: 100 ng/ml (each); TGF-β-treated fibroblasts. The method, then:
The method for detecting and measuring collagen formation in the presence of relaxin described in Unemori and Amento, 1990, J. Biol. Chem. 265:10681-685 has been modified as follows to determine the ability of RLF, in vitro, to modulate the expression of collagen. Materials and Methods. Rheumatoid synovial fibroblasts (Strain No. […] The cells were simultaneously biosynthetically labelled with ^3H=[…] μCi/ml) in the presence of ascorbate and BAPN. After 24 hours, the conditioned media were collected and electrophoresed on 4-12% polyacrylamide gels (NOVEX) under reducing conditions. Gels were enhanced, dried, and exposed to X-ray films for 1-2 weeks. Collagen bands were identified on the X-ray films as bacterial collagenase-sensitive, proline-incorporating bands between 95-200 kDa. Band density was quantified by scanning densitometry and used as estimates of collagen expression.

T1 sequence (Q91ZZ5 whole entry): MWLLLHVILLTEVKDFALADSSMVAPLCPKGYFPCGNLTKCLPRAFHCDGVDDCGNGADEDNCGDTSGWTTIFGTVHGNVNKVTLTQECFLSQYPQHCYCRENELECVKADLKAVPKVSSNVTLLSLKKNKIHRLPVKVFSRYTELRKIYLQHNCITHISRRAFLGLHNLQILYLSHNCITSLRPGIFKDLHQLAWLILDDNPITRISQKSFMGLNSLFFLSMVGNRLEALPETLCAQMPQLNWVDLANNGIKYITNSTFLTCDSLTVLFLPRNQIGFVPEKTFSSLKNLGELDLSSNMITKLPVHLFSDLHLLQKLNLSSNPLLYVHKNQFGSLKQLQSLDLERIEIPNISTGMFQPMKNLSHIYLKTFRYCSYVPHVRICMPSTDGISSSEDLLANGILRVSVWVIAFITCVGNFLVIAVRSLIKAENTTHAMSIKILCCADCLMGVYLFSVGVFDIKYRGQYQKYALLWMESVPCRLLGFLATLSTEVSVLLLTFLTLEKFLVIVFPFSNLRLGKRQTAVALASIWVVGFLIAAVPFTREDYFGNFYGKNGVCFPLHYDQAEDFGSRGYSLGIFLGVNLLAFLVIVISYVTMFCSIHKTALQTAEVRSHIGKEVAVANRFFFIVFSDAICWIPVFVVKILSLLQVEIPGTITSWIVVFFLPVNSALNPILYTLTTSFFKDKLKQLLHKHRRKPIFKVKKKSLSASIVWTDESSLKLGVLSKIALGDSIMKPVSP

For the substance “RLF: synthesized human relaxin-like factor, two-chain peptide (A and B chain, SEQ ID NOS:3 and 4), three disulfide links (alpha AAATNPARYCCLSGCTQQDLLTLCPY; beta PTPEMREKLCGHHFVRALVRVCGGPRWSTEA; disulfide I:11-II:10; also: two further disulfide bonds, places not given here)”, the “50% Binding” value in experiment [1] came to 0.3 ng; in experiment [3] (tracer pRLX), 10000 ng. Also, the “decrease of TGF-β-stimulated fibronectin expression” value in experiment [2] is listed as 17%. Also, the “recognition by the uterine relaxin receptor” value in experiment [3] is “barely recognizes”. The “decrease of TGF-β-stimulated collagen expression” value in experiment [4] came to 17%.
